Data taken from article PMC3282809 (Diabetes, 2012).

Target: the molecule itself
Assay: cross-linking + co-IP

B1: endogenous sorcin (MIN6 β-cells) (natural protein, mouse (endogenous in MIN6), UniProt Q6P069 1-198, looked up)
chain: MAYPGHPGAGGGYYPGGYGGAPGGPAFPGQTQDPLYGYFAAVAGQDGQIDADELQRCLTQSGIAGGYKPFNLETCRLMVSMLDRDMSGTMGFNEFKELWAVLNGWRQHFISFDSDRSGTVDPQELQKALTTMGFRLSPQTVNSVAKRYSTSGKITFDDYIACCVKLRALTDSFRRRDSGQQGVVNFSYDDFIQCVMTV
  stoichiometry N: 2
